The supplement of paper PMC12338614
± gives the uncertainty stated by the source.

B1: library; numbered along this chain (parent)
chain: MEVVDPQQLGMFTEGELMSVGMDTFIHRIDSTEVIYQPRRKRAKLIGKYLMGDLLGEGSYGKVKEVLDSETLCRRAVKILKKKKLRRIPNGEANVKKEIQLLRRLRHKNVIQLVDVLYNEEKQKMYMVMEYCVCGMQEMLDSVPEKRFPVCQAHGYFCQLIDGLEYLHSQGIVHKDIKPGNLLLTTGGTLKISDLGVAEALHPFAADDTCRTSQGSPAFQPPEIANGLDTFSGFKVDIWSAGVTLYNITTGLYPFEGDNIYKLFENIGKGSYAIPGDCGPPLSDLLKGMLEYEPAKRFSIRQIRQHSWFRKKHPPAEAPVPIPPSPDTKDRWRSMTVVPYLEDLHGADEDEDLFDIEDDIIYTQDFTVPGQVPEEEASHNGQRRGLPKAVCMNGTEAAQLSTKSRAEGRAPNPARKACSASSKIRRLSACKQQ

Variants of: B1
Assay: STK11 functional score (HeLa growth suppression), rescaled enrichment; synonymous median = 1, nonsense median = 0 (normalised score)
Conditions: with HeLa; variant type: missense
Experimental: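 Deep mutational scan (TileSeq/POPCode codon randomisation) of full-length codon-optimised STK11 cDNA integrated at a Bxb1 landing pad (AAVS1) in HeLa cells. Restoring functional STK11 suppresses HeLa proliferation. Variant frequencies were measured by NGS before and after about two weeks of growth. The error-corrected enrichment log-ratio was rescaled so that synonymous median = 1 and nonsense median = 0, scores above 1 were compressed, and codon-level and three biological replicate scores were combined; error is the bootstrapped standard error. Scale: synonymous median = 1, nonsense median = 0; below 0.5 = damaging.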

In order of falling STK11 functional score:
1. MEVVDPQQLGMFTEGELMSVGMDTFIHRIDSTEVIYQPRRKRAKLIGKYLMGDLLGEGSYGKVKEVLDSETLCRRAVKILKKKKLRRIPNGEANVKKEIQLLRRLRHKNVIQLVDVLYNEEKQKMYMVMEYCVCGMQEMLDSVPEKRFPVCQAHGYFCQLIDGLEYLHSQGIVHKDIKPGNLLLTTGGTLKISDLGVAEALHPFAADDTCRTSQGSPAFQPPEIANGLDTFSGFKVDIWSAGVTLYNITTGLYPFEGDNIYKLFENIGKGSYAIPGDCGPPLSDLLKGMLEYEPAKRFSIRQIRQHSWFRKKHPPAEAPVPIPPSPDTKDRWRSMTVVPYLEDLHGADEDEDLFDIEDDIIYTQDFTVPGQVPEWEASHNGQRRGLPKAVCMNGTEAAQLSTKSRAEGRAPNPARKACSASSKIRRLSACKQQ [E375W]  1.54 ± 0.31
2. MEVVDPQQLGMFTEGELMSVGMDTFIHRIDSTEVIYQPRRKRAKLIGKYLMGDLLGEGSYGKVKEVLDSETLCRRAVKILKKKKLRRIPNGEANVKKEIQLLRRLRHKNVIQLVDVLYNEEKQKMYMVMEYCVCGMQEMLDSVPEKRFPVCQAHGYFCQLIDGLEYLHSQGIVHKDIKPGNLLLTTGGTLKISDLGVAEALHPFAADDTCYTSQGSPAFQPPEIANGLDTFSGFKVDIWSAGVTLYNITTGLYPFEGDNIYKLFENIGKGSYAIPGDCGPPLSDLLKGMLEYEPAKRFSIRQIRQHSWFRKKHPPAEAPVPIPPSPDTKDRWRSMTVVPYLEDLHGADEDEDLFDIEDDIIYTQDFTVPGQVPEEEASHNGQRRGLPKAVCMNGTEAAQLSTKSRAEGRAPNPARKACSASSKIRRLSACKQQ [R211Y]  1.53 ± 0.57
3. MEVVDPQQLGMFTEGELMSVGMDTFIHRIDSTEVIYQPRRKRAKLIGKYLMGDLLGEGSYGKVKEVLDSETLCRRAVKILKKKKLRRIPNGEANVKKEIQLLRRLRHKNVIQLVDVLYNEEKQKMYMVMEYCVCGMQEMLDSYPEKRFPVCQAHGYFCQLIDGLEYLHSQGIVHKDIKPGNLLLTTGGTLKISDLGVAEALHPFAADDTCRTSQGSPAFQPPEIANGLDTFSGFKVDIWSAGVTLYNITTGLYPFEGDNIYKLFENIGKGSYAIPGDCGPPLSDLLKGMLEYEPAKRFSIRQIRQHSWFRKKHPPAEAPVPIPPSPDTKDRWRSMTVVPYLEDLHGADEDEDLFDIEDDIIYTQDFTVPGQVPEEEASHNGQRRGLPKAVCMNGTEAAQLSTKSRAEGRAPNPARKACSASSKIRRLSACKQQ [V143Y]  1.52 ± 0.22
4. MEVVDPQQLGMFTEGELMSVGMDTFIHRIDSTEVIYQPRRKRAKLIGKYLMGDLLGEGSYGKVKEVLDSETLCRRAVKILKKKKLRRIPNGEANVKKEIQLLRRLRHKNVIQLVDVLYNEEKQKMYMVMEYCVCGMQEMLDSVPEKRFPVCQAHGYFCQLIDGLEYLHSQGIVHKDIKPGNLLLTTGGTLKISDLGVAEALHPFAADDTCRTSQGSPAFQPPEIANGLDTFSGFKVDIWSAGVTLYNITTGLYPFEGDNIYKLFENIGKGSYAIPGDCGPPLSDLLKGMLEYEPAKRFSIRQIRQHSWFRKKHPPAEAPVPIPPSPDTKDRWRSMTVVPYLECLHGADEDEDLFDIEDDIIYTQDFTVPGQVPEEEASHNGQRRGLPKAVCMNGTEAAQLSTKSRAEGRAPNPARKACSASSKIRRLSACKQQ [D343C]  1.44 ± 0.35
5. MEVVDPQQLGMFTEGELMSVGMDTFIHRIDSTEVIYQPRRKRAKLIGKYLMGDLLGEGSYGKVKEVLDSETLCRRAVKILKKKKLRRIPNGEANVKKEIQLLRRLRHKNVIQLVDVLYNEEKQKMYMVMEYCVCGMQEMLDSVPESRFPVCQAHGYFCQLIDGLEYLHSQGIVHKDIKPGNLLLTTGGTLKISDLGVAEALHPFAADDTCRTSQGSPAFQPPEIANGLDTFSGFKVDIWSAGVTLYNITTGLYPFEGDNIYKLFENIGKGSYAIPGDCGPPLSDLLKGMLEYEPAKRFSIRQIRQHSWFRKKHPPAEAPVPIPPSPDTKDRWRSMTVVPYLEDLHGADEDEDLFDIEDDIIYTQDFTVPGQVPEEEASHNGQRRGLPKAVCMNGTEAAQLSTKSRAEGRAPNPARKACSASSKIRRLSACKQQ [K146S]  1.33 ± 0.12
6. MEVVDPQQLGMFTEGELMSVGMDTFIHRIDSTEVIYQPRRKRAKLIGKYLMGDLLGEGSYGKSKEVLDSETLCRRAVKILKKKKLRRIPNGEANVKKEIQLLRRLRHKNVIQLVDVLYNEEKQKMYMVMEYCVCGMQEMLDSVPEKRFPVCQAHGYFCQLIDGLEYLHSQGIVHKDIKPGNLLLTTGGTLKISDLGVAEALHPFAADDTCRTSQGSPAFQPPEIANGLDTFSGFKVDIWSAGVTLYNITTGLYPFEGDNIYKLFENIGKGSYAIPGDCGPPLSDLLKGMLEYEPAKRFSIRQIRQHSWFRKKHPPAEAPVPIPPSPDTKDRWRSMTVVPYLEDLHGADEDEDLFDIEDDIIYTQDFTVPGQVPEEEASHNGQRRGLPKAVCMNGTEAAQLSTKSRAEGRAPNPARKACSASSKIRRLSACKQQ [V63S]  1.27 ± 0.23
7. MEVVDPQQLGMFTEGELMSVGMDTFIHRIDSTEVIYQPRRKRAKLIGKYLMGDLLGEGSYGKVKEVLDSETLCRRAVKILKKKKLRRIPNGEANVKKEIQLLRRLRHKNVIQLVDVLYNEEKQKMYMVMEYCVCGMQEMLDSVPEKRFPVCQAHGYFCQLIDGLEYLHSQGIVHKDIKPGNLLLTTGGTLKISDLGVAEALHPFAADDTCRTSQGSPEFQPPEIANGLDTFSGFKVDIWSAGVTLYNITTGLYPFEGDNIYKLFENIGKGSYAIPGDCGPPLSDLLKGMLEYEPAKRFSIRQIRQHSWFRKKHPPAEAPVPIPPSPDTKDRWRSMTVVPYLEDLHGADEDEDLFDIEDDIIYTQDFTVPGQVPEEEASHNGQRRGLPKAVCMNGTEAAQLSTKSRAEGRAPNPARKACSASSKIRRLSACKQQ [A218E]  1.23 ± 0.24
8. MEVVDPQQLGMFTEGELMSVGMDTFIHRIDSTEVIYQPRRKRAKLIGKYLMGDLLGEGSYGKVKEVLDSETLCRRAVKILKKKKLRRIPNGEANVKKEIQLLRRLRHKNVIQLVDVLYNEEKQKMYMVMEYCVCGMQEMLDSVPEKRFPVCQAHGYFCQLIDGLEYLHSQGIVHKDIKPGNLLLTTGGTLKISDLGVAEALHPFAADDTCRTSQGSPAFQPPEIANGLDTFSGFKVDIWSAGVTLYNITTGLYPFEGDNIYKLFENIGKGSYAIPGDCGPPLSDLLKGMLEYEPAKRFSIRQIRQHSWFRKKHPPAEAPVPIPPSPDTKDRWRSMTVVPYLEDLHGADEDEDLFDIEDDIIYTQDFTVPGQVPEEEASHNGQRRGLPKWVCMNGTEAAQLSTKSRAEGRAPNPARKACSASSKIRRLSACKQQ [A389W]  1.04 ± 0.2
9. MEVVDPQQLGMFTEGELMSVGMDTFIHRIDSTEVIYQPRRKRAKLIGKYLMGDLLGEGSYGKVKEVLDSETLCRRAVKILKKKKLRRIPNGEANVKKEIQLLRRLRHKNVIQLVDVLYNEEKQKMYMVMEYCVCGMQEMLDSVPEKRFPVCQAHGYFCQLIDGLEYLHSQGIVHKDIKPGNLLLTTGGTLKISDLGVAEALHPFAADDTCRTSQGSPAFQPPEIANGLDTFSGFKWDIWSAGVTLYNITTGLYPFEGDNIYKLFENIGKGSYAIPGDCGPPLSDLLKGMLEYEPAKRFSIRQIRQHSWFRKKHPPAEAPVPIPPSPDTKDRWRSMTVVPYLEDLHGADEDEDLFDIEDDIIYTQDFTVPGQVPEEEASHNGQRRGLPKAVCMNGTEAAQLSTKSRAEGRAPNPARKACSASSKIRRLSACKQQ [V236W]  1.04 ± 0.19
10. MEVVDPQQLGMFTEGELMSVGMDTFIHRIDSTEVIYQPRRKRAKLIGKYLMGDLLGEGSYGKVKEVLDSETLCRRAVKILKKKKLRRIPNGEANVKKEIQLLRRLRHKNVIQLVDVLYNYEKQKMYMVMEYCVCGMQEMLDSVPEKRFPVCQAHGYFCQLIDGLEYLHSQGIVHKDIKPGNLLLTTGGTLKISDLGVAEALHPFAADDTCRTSQGSPAFQPPEIANGLDTFSGFKVDIWSAGVTLYNITTGLYPFEGDNIYKLFENIGKGSYAIPGDCGPPLSDLLKGMLEYEPAKRFSIRQIRQHSWFRKKHPPAEAPVPIPPSPDTKDRWRSMTVVPYLEDLHGADEDEDLFDIEDDIIYTQDFTVPGQVPEEEASHNGQRRGLPKAVCMNGTEAAQLSTKSRAEGRAPNPARKACSASSKIRRLSACKQQ [E120Y]  0.964 ± 0.2
11. MEVVDPQQLGMFTEGELMSVGMDTFIHRIDSTEVIYQPRRKRAKVIGKYLMGDLLGEGSYGKVKEVLDSETLCRRAVKILKKKKLRRIPNGEANVKKEIQLLRRLRHKNVIQLVDVLYNEEKQKMYMVMEYCVCGMQEMLDSVPEKRFPVCQAHGYFCQLIDGLEYLHSQGIVHKDIKPGNLLLTTGGTLKISDLGVAEALHPFAADDTCRTSQGSPAFQPPEIANGLDTFSGFKVDIWSAGVTLYNITTGLYPFEGDNIYKLFENIGKGSYAIPGDCGPPLSDLLKGMLEYEPAKRFSIRQIRQHSWFRKKHPPAEAPVPIPPSPDTKDRWRSMTVVPYLEDLHGADEDEDLFDIEDDIIYTQDFTVPGQVPEEEASHNGQRRGLPKAVCMNGTEAAQLSTKSRAEGRAPNPARKACSASSKIRRLSACKQQ [L45V]  0.939 ± 0.17
12. MEVVDPQQLGMFTEGELMSVGMDTFIHRIDSTEVIYQPRRKRAKLIGKYLMGDLLGEGSYGKVKEWLDSETLCRRAVKILKKKKLRRIPNGEANVKKEIQLLRRLRHKNVIQLVDVLYNEEKQKMYMVMEYCVCGMQEMLDSVPEKRFPVCQAHGYFCQLIDGLEYLHSQGIVHKDIKPGNLLLTTGGTLKISDLGVAEALHPFAADDTCRTSQGSPAFQPPEIANGLDTFSGFKVDIWSAGVTLYNITTGLYPFEGDNIYKLFENIGKGSYAIPGDCGPPLSDLLKGMLEYEPAKRFSIRQIRQHSWFRKKHPPAEAPVPIPPSPDTKDRWRSMTVVPYLEDLHGADEDEDLFDIEDDIIYTQDFTVPGQVPEEEASHNGQRRGLPKAVCMNGTEAAQLSTKSRAEGRAPNPARKACSASSKIRRLSACKQQ [V66W]  0.62 ± 0.19
13. MEVVDPQQLGMFTEGELMSVGMDTFIHRIDSTEVIYQPRRKRAKLIGKYLMGDLLGEGSYGKVKEVLDSETLCRRAVKILKKKKLRRIPNGEANVKKEIQLLRRLRHKNVIQLVDVLYNEEKQKMYMVMEYCVCGMQEMLDSVPEKRFPVCQAHGYFCQLIDGLEYLHSQGIVHKDIKPGNLLLTTGGTLKISDLGVAEALHPFAADDTCRTSQGSPAFQPPEIANGLDTFSGFKVDIWSAGMTLYNITTGLYPFEGDNIYKLFENIGKGSYAIPGDCGPPLSDLLKGMLEYEPAKRFSIRQIRQHSWFRKKHPPAEAPVPIPPSPDTKDRWRSMTVVPYLEDLHGADEDEDLFDIEDDIIYTQDFTVPGQVPEEEASHNGQRRGLPKAVCMNGTEAAQLSTKSRAEGRAPNPARKACSASSKIRRLSACKQQ [V243M]  0.378 ± 0.14
14. MEVVDPQQLGMFTEGELMSVGMDTFIHRIDSTEVIYQPRRKRAKLIGKYLMGDLLGEGSYGKVKEVLDSETLCRRAVKILKKKKLRRIPNGEANVKKEIQLLRRLRHKNVIQLVDVLYNEEKQKMYMVMEMCVCGMQEMLDSVPEKRFPVCQAHGYFCQLIDGLEYLHSQGIVHKDIKPGNLLLTTGGTLKISDLGVAEALHPFAADDTCRTSQGSPAFQPPEIANGLDTFSGFKVDIWSAGVTLYNITTGLYPFEGDNIYKLFENIGKGSYAIPGDCGPPLSDLLKGMLEYEPAKRFSIRQIRQHSWFRKKHPPAEAPVPIPPSPDTKDRWRSMTVVPYLEDLHGADEDEDLFDIEDDIIYTQDFTVPGQVPEEEASHNGQRRGLPKAVCMNGTEAAQLSTKSRAEGRAPNPARKACSASSKIRRLSACKQQ [Y131M]  -0.137 ± 0.13
